Drawing on article PMC10117073, this text covers stoichiometry N for 2 substances.

Experiment [1] deals with mature Geh (mGeh) (S. aureus). The experiment is described as follows: SEC; analytical gel filtration column (HiLoad 13/300 Super 200); molecular weight estimated from a standard curve (thyroglobulin, ferritin, aldolase, conalbumin, ovalbumin, RNase A, aprotinin).
For experiment [2], the target named is proGeh (glycerol ester hydrolase, pro form) (S. aureus). The description is as above.

Broadly, the stoichiometry N is the number of molecules, sites or subunits per partner or assembly. For the substance mature Geh (mGeh) (enzyme), in experiment [1], the stoichiometry N is 2. Take “proGeh (glycerol ester hydrolase, pro form) (from UniProt A0A1R3UHM3 38-645) (enzyme)”: the stoichiometry N in experiment [2] was 2.
